The results in this text go back to doi:10.1101/723213.

In experiment [1] the target is CENP-A_(101-225)–H4 heterodimer (Drosophila melanogaster), Q9V6Q2. Description: SEC-MALS. The settings on record: remark: other sources report otherwise.
The target of experiment [2] is CENP-A_(144-225)–H4 heterodimer (Drosophila melanogaster), Q9V6Q2. Description: SEC-MALS. The following applies: remark: other sources report otherwise.
CENP-A_(144-225)–H4 heterodimer (Drosophila melanogaster), Q9V6Q2, sequence (Q9V6Q2 144-225, one chain of several): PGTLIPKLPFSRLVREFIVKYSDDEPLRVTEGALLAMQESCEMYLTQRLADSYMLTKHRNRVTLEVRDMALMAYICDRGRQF

CENP-A_(101-225)–H4 heterodimer (Drosophila melanogaster), Q9V6Q2, sequence (Q9V6Q2 101-225, one chain of several): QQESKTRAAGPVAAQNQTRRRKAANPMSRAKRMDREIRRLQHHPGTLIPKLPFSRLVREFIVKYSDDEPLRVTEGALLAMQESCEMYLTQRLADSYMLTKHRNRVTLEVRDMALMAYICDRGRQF

B1: His-CAL1_(1-160), Q9VEN2 1-160 (domain or fragment)
chain: MANAVVDEETLEAMVYERSKAWSSKMADFASLEDGMEIDVAEFDNLFHGEDEDPDLDDVAKEAVEDNVPDEAKLEMGHINATSVTELTLILCANEDNEAKAEIEEILNQTVPVVEEHKRKWREAGLDRILDTFDEKQIEHHVGRWMRRHNSVYLEASPPK
Consider B1, for which the stoichiometry N (CAL1 per CENP-A/H4 heterodimer) in experiment [1] and in experiment [2] was 1 in each case.
